We go through six molecules from patent US20140044730A1 (Regeneron, published 2014).

Experiment [1] deals with T1, human PCSK9 with a C-terminal myc-myc-hexahistidine tag (human, UniProt Q8NBP7 31-692, limits assumed).
T1 construct: also called hPCSK9-mmH; hPCSK9-mmh; not shown: C-terminal myc-myc-hexahistidine tag
As to the kind of experiment: SPR 25C pH 5.75, mAb captured.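 Note: biacore surface with anti-human Fc antibody capturing the antibodies, PCSK9 as analyte, one-to-one kinetic fit, KD as kd over ka, half-life derived from kd.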

Experiment [2] concerns the target T1, human PCSK9 with a C-terminal …. As to the kind of experiment: blocking ELISA pH 7.2, 500 pM hPCSK9-mmH vs coated hLDLR EGFA-hFc, exp #2. Background: ELISA stands for enzyme-linked immunosorbent assay.
Source text: (§1) The equilibrated sample solutions were then transferred to the LDLR EGFA-hFc coated plate prepared as described above.
For experiment [3] the target is unchanged. As to the kind of experiment: blocking ELISA pH 7.2, 500 pM hPCSK9-mmH vs coated hLDLR EGFA-hFc, exp #1.
Source text: as §1
The target of experiment [4] is T2, human PCSK9 with a C-terminal myc-myc hexahistidine tag and a D374Y mutation (human, UniProt Q8NBP7 31-692, limits assumed). As to the kind of experiment: cell-based or functional assay.
The target in experiment [5] is T3, recombinant cynomolgus monkey PCSK9 with a C-terminal myc-myc hexahistidine tag (cynomolgus monkey, UniProt A8T662 31-692 (Macaca nemestrina entry), limits assumed). As to the kind of experiment: cell-based or functional assay.
Experiment [6] deals with T1, human PCSK9 with a C-terminal …. Nature of the experiment: SPR 25C, mAb captured.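 Note: biacore CM4 surface bearing anti-human Fc antibody capturing the mAbs, PCSK9 binding and release rates fitted with a one-to-one model, KD and half-life derived from those rates.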
Experiment [7] shares this target. Nature of the experiment: SPR 25C pH 7.2, mAb captured.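 Note: biacore SPR, antibodies captured on anti-human Fc CM4 chip with PCSK9 flowed as analyte, rate constants from a one-to-one kinetic fit, KD and half-life derived from them.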
The target is the same in experiment [8]. Nature of the experiment: cell-based or functional assay.
Experiment [9] has the same target. As to the kind of experiment: SPR 25C pH 6.0, purified mAb captured.
For experiment [10] the target is unchanged. Nature of the experiment: SPR 25C pH 7.4, purified mAb captured.
Experiment [11] shares this target. Nature of the experiment: blocking ELISA pH 5.75, 500 pM hPCSK9-mmH vs coated hLDLR EGFA-hFc.
Procedure: (§2) Briefly, hLDLR EGFA-hFc was coated at 2 μg/mL in PBS on a 96-well microtiter plate overnight at 4° C. followed by blocking with a solution of 0.5% (w/v) BSA in PBS.
(§3) The equilibrated sample solutions were then transferred to a LDLR EGFA-hFc coated plate.
Experiment [12] has the same target. As to the kind of experiment: blocking ELISA, hPCSK9-mmH vs coated hLDLR EGFA-hFc.
Procedure: as §2, §3
The target is the same in experiment [13]. As to the kind of experiment: blocking ELISA pH 7.2, 500 pM hPCSK9-mmH vs coated hLDLR EGFA-hFc.
Procedure: as §2, §3
The target is the same in experiment [14]. As to the kind of experiment: SPR 25C, purified mAb captured.
Experiment [15] has the same target. Nature of the experiment: SPR (Biacore), 37 °C; antibody captured on anti-human Fc surface, hPCSK9-mmH injected (3.125-50 nM); association at pH 7.4, dissociation at pH 5.75. (In general: SPR reads the build-up and loss of mass on a sensor chip optically.)
Procedure: (§4) All experiments were carried out at 37° C.
(§5) A Biacore CM4 sensor chip was derivatized with a Fab′2 polyclonal anti-human Fc antibody to capture human antibodies. […] Dissociation (kd) rate constants were determined by processing and fitting the data using Scrubber version 2.0 curve fitting software. Dissociative half-lives (t_{1/2}) were calculated from the dissociation rate constants as: t_{1/2} (min)=(In2/kd)/60.
The target is the same in experiment [16]. As to the kind of experiment: SPR (Biacore), 37 °C; antibody captured on anti-human Fc surface, hPCSK9-mmH injected (3.125-50 nM); association at pH 7.4, dissociation at pH 7.4.
Procedure: as §4, §5
Experiment [17] shares this target. As to the kind of experiment: SPR (Biacore), 37 °C; antibody captured on anti-human Fc surface, hPCSK9-mmH injected (3.125-50 nM); association at pH 7.4, dissociation at pH 6.0.
Procedure: as §4, §5
Experiment [18] deals with T2, human PCSK9 with a C-terminal myc-myc …. As to the kind of experiment: cell-based or functional assay. The source holds these as a separate data set.
Experiment [19] addresses T1, human PCSK9 with a C-terminal …. Nature of the experiment: cell-based or functional assay. This is another data set of the same source.
Experiment [20] addresses T3, recombinant cynomolgus monkey PCSK9 …. Nature of the experiment: cell-based or functional assay. The source holds these as a separate data set.
Experiment [21] concerns the target T1, human PCSK9 with a C-terminal …. Nature of the experiment: SPR (Biacore), 37 °C; antibody captured on anti-human Fc surface, hPCSK9-mmH injected (3.125-50 nM); association at pH 7.4, dissociation at pH 7.2.
Procedure: as §5

Where two headings read alike, the source gives them in different places.

B1: Parental 300N (antibody, V domains shown)
VH: EMQLVESGGGLVQPGGSLRLSCAASGFTFSSHWMKWVRQAPGKGLEWVANINQDGSEKYYVDSVKGRFTISRDNAKNSLFLQMNSLRAEDTAVYYCARDIVLMVYDMDYYYYGMDVWGQGTTVTVSS
VL: not shown
notes: also called mAb 300N
In experiment [1], B1 returned a Kd of 0.999 nM and a t½ of 13 min. The half-maximal inhibitory concentration (IC50) in experiment [2] stood at 0.153 nM. This molecule also yielded an IC50 in experiment [3] of 0.226 nM. The “IC50, LDL uptake in HepG2 cells, 2 nM hPCSK9-D374Y-mmH” value (from here on “IC50 … 2 nM hPCSK9-D374Y-mmH”) in experiment [4] stood at 1.2 nM. Moreover, in [5], the “IC50, LDL uptake in HepG2 cells, 50 nM MfPCSK9-mmH” value (shortened to “IC50 … 50 nM MfPCSK9-mmH”) is 10 nM. In experiment [6], the “KD ratio pH 5.75/pH 7.2” value amounted to 1.15 and the “t½ ratio pH 5.75/pH 7.2” value was 0.26. Also, in experiment [7], binding was characterised by a dissociation constant (Kd) of 0.865 nM and the t½ worked out at 48 min.

B2: 300N(v1) (antibody, IgG1, V domains shown)
VH: EMQLVESGGGLVQPGGSLRLSCAASGFTFSSHWMKWVRQAPGKGLEWVANINQDGSEKYYVDSVKGRFTISRDNAKNSLFLQMNSLRAEDTAVYYCARDIVLMVYDMDYYYYGMDVWGQGTTVTVSS
VL: not shown
B2: the “IC50, LDL uptake in HepG2 cells, 100 nM hPCSK9-mmH” value in experiment [8] stood at 28 nM. In experiment [9], this molecule displayed a Kd of 1.18 nM, a koff of 0.000304 s⁻¹, a kon of 257000 M⁻¹ s⁻¹ and a t½ of 38 min. In [10], binding was put at a Kd of 0.507 nM, the koff was found to be 7.03e-05 s⁻¹, the kon worked out at 139000 M⁻¹ s⁻¹ and the t½ stood at 164 min. In experiment [11], this molecule displayed an IC50 of 0.266 nM. The “IC50 ratio (pH 5.75/pH 7.2)” value in experiment [12] turned out to be 1.4. For the same molecule, the IC50 in experiment [13] was found to be 0.19 nM. Moreover, in experiment [14], the “KD ratio pH 6.0/pH 7.4” value was 2.33, the “ka ratio pH 6.0/pH 7.4” value was 1.85, the “kd ratio pH 6.0/pH 7.4” value was 4.33 and the “t½ ratio pH 6.0/pH 7.4” value was 0.23.

B3: VK-L30H (antibody, V domains shown)
VH: EMQLVESGGGLVQPGGSLRLSCAASGFTFSSHWMKWVRQAPGKGLEWVANINQDGSEKYYVDSVKGRFTISRDNAKNSLFLQMNSLRAEDTAVYYCARDIVLMVYDMDYYYYGMDVWGQGTTVTVSS
VL: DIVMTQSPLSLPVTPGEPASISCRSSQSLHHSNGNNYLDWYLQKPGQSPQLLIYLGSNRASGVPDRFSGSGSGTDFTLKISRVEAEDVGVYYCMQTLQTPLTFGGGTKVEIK
notes: His variant of 300N
As to B3, in experiment [8], the “IC50, LDL uptake in HepG2 cells, 100 nM hPCSK9-mmH” value was found to be 37 nM. Also, the “t½ (dissociative half-life)” value was 0.2 min in experiment [15], 10.6 min in experiment [16], 0.4 min in experiment [17] and 11.2 min in [21]. The Kd in [9] is 27 nM; in experiment [1], 57.8 nM; in experiment [10], 1.82 nM; in experiment [7], 2.27 nM. The off-rate (koff) turned out to be 0.00845 s⁻¹ in [9] and 0.000293 s⁻¹ in [10]. Further, the kon in experiment [9] worked out at 313000 M⁻¹ s⁻¹; in experiment [10], 161000 M⁻¹ s⁻¹. Also, the t½ in experiment [9] came to 1.4 min; in experiment [1], 0.2 min; in experiment [10], 39.4 min; in experiment [7], 16 min. Further, the IC50 in [2] is 0.198 nM; in experiment [11], 43.4 nM; in [3] it was 0.166 nM; in experiment [13] it was 0.209 nM. The “IC50 ratio (pH 5.75/pH 7.2)” value in [12] is 208. Besides, the “IC50 … 2 nM hPCSK9-D374Y-mmH” value is 2.1 nM in experiment [4] and 3.3 nM in experiment [18]. For the same molecule, the entries for the “IC50 … 50 nM MfPCSK9-mmH” value in [5] and in experiment [20] were 19.9 nM and 26.4 nM, respectively. In addition, in experiment [6], the “KD ratio pH 5.75/pH 7.2” value is 25.5. Besides, the “t½ ratio pH 5.75/pH 7.2” value in experiment [6] was 0.01. For the same molecule, in experiment [19], the “IC50, LDL uptake in HepG2 cells, 50 nM hPCSK9-mmH” value was found to be 9 nM. Besides, the “KD ratio pH 6.0/pH 7.4” value in experiment [14] amounted to 14.8. The “ka ratio pH 6.0/pH 7.4” value in experiment [14] was 1.94. Also, the “kd ratio pH 6.0/pH 7.4” value in [14] turned out to be 28.8. Moreover, the “t½ ratio pH 6.0/pH 7.4” value in [14] worked out at 0.03.

B4: VH-V104H (antibody, V domains shown)
VH: EMQLVESGGGLVQPGGSLRLSCAASGFTFSSHWMKWVRQAPGKGLEWVANINQDGSEKYYVDSVKGRFTISRDNAKNSLFLQMNSLRAEDTAVYYCARDIVLMHYDMDYYYYGMDVWGQGTTVTVSS
VL: not shown
notes: His variant of 300N
In [1], B4 came in with a Kd of 47.6 nM and a t½ of 0.4 min. For the same molecule, the IC50 in experiment [3] was determined as 0.331 nM. For the same molecule, the “IC50 … 2 nM hPCSK9-D374Y-mmH” value in experiment [4] worked out at 4.7 nM. For the same molecule, in experiment [5], the “IC50 … 50 nM MfPCSK9-mmH” value was 15.8 nM. In addition, in experiment [6], the “KD ratio pH 5.75/pH 7.2” value came out at 8.51 and the “t½ ratio pH 5.75/pH 7.2” value is 0.04. In addition, in [7], the Kd is 5.6 nM and the t½ was 11 min.

B5: VH-Y112H (antibody, V domains shown)
VH: EMQLVESGGGLVQPGGSLRLSCAASGFTFSSHWMKWVRQAPGKGLEWVANINQDGSEKYYVDSVKGRFTISRDNAKNSLFLQMNSLRAEDTAVYYCARDIVLMVYDMDYYYHGMDVWGQGTTVTVSS
VL: not shown
notes: His variant of 300N
In [1], B5 gave a Kd of 55.7 nM and a t½ of 0.04 min. For the same molecule, inhibition in [3] was half-maximal at 0.506 nM (IC50). Moreover, the “IC50 … 2 nM hPCSK9-D374Y-mmH” value in experiment [4] came out at 4.7 nM. Moreover, the “IC50 … 50 nM MfPCSK9-mmH” value in [5] worked out at 21.2 nM. For the same molecule, in experiment [6], the “KD ratio pH 5.75/pH 7.2” value was 4.52 and the “t½ ratio pH 5.75/pH 7.2” value came to 0.01. In experiment [7], the affinity, expressed as Kd, was 12.3 nM and the t½ stood at 5 min.

B6: VH-V101H (antibody, V domains shown)
VH: EMQLVESGGGLVQPGGSLRLSCAASGFTFSSHWMKWVRQAPGKGLEWVANINQDGSEKYYVDSVKGRFTISRDNAKNSLFLQMNSLRAEDTAVYYCARDIHLMVYDMDYYYYGMDVWGQGTTVTVSS
VL: not shown
notes: His variant of 300N
In [1], B6 displayed a dissociation constant (Kd) of 10.5 nM and a t½ of 3 min. In experiment [3], this molecule registered an IC50 of 0.857 nM. In experiment [4], the “IC50 … 2 nM hPCSK9-D374Y-mmH” value came to 4.7 nM. Also, the “IC50 … 50 nM MfPCSK9-mmH” value in [5] was 17.2 nM. Besides, in experiment [6], the “KD ratio pH 5.75/pH 7.2” value amounted to 1.43 and the “t½ ratio pH 5.75/pH 7.2” value amounted to 0.14. Besides, in experiment [7], the Kd was 7.33 nM and the t½ amounted to 25 min.

As a reminder, the Kd is a measure of binding affinity in units of concentration. Broadly, the t½ is how long it takes for the measured level to halve. Usually IC50 stands for the concentration needed to halve the response being measured. One may read the koff as the first-order rate constant of dissociation. By kon is commonly meant a measure of how fast the partners come together.
